Laboratory results from US20050202033A1.

Columns and labels:
[1] = target: recombinant human or murine heat shock protein 70 (hsp70) (human or murine) (UniProt P0DMV8); test: on hsp70
[2] = target: recombinant human or murine heat shock protein 70 (hsp70) (human or murine) (UniProt P0DMV8); test: binding inhibition assay (Hill plot) against tritiated … on hsp70
[3] = target: T1, recombinant human or murine heat shock protein 70 (hsp70) (human or murine), P0DMV8; test: as above
[4] = target: T1, recombinant human or murine heat shock …; test: on hsp70
[5] = target: T1, recombinant human or murine heat shock …; test: binding inhibition assay as in Example 2, on hsp70
[6] = target: T1, recombinant human or murine heat shock …; test: competition against a labeled reporter peptide on HSP70; Kd calculated from IC50 (Hill plot)
[7] = target: T1, recombinant human or murine heat shock …; test: binding inhibition assay (Hill plot) or Scatchard analysis of the reference on hsp70

T1 sequence (P0DMV8 whole entry): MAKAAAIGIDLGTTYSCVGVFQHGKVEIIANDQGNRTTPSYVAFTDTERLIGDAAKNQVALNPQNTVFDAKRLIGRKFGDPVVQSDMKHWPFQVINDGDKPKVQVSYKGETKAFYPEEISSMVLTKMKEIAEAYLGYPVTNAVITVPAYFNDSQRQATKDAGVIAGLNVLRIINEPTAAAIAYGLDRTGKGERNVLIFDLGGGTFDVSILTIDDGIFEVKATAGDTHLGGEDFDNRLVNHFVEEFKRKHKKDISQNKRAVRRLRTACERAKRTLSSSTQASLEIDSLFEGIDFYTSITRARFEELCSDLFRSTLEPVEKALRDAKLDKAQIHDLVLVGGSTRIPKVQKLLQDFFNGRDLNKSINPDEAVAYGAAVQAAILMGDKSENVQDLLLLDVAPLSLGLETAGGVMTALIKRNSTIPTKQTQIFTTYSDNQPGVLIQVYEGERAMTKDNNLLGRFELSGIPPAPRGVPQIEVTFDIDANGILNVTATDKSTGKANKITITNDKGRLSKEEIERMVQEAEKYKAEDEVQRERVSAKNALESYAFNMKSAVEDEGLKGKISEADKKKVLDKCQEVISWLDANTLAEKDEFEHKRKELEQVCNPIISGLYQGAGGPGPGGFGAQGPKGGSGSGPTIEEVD
Chain of recombinant human or murine heat shock protein 70 (hsp70) (human or murine) (P0DMV8 whole entry): as above

Molecule | Kd [3] [µM] | Kd [4] [µM] | further results
[…] (HIV Pol: 464-472) (peptide; other documents disagree on this pair) |  |  | Kd [1]: 83 µM
[…] (HPV Strain 16 E7 11-20) (peptide; other documents disagree on this pair) |  |  | Kd [2]: 91 µM
SIINFEKLGSGRKLFFNLRW (modifications not checked) [SIINFEKLgsg…] | 7 |  | 
SLFNTVATL (modifications not checked) [… (HIV Gag/p17: 77-85 (79F))] |  | 35 | 
GLYDGMEHL (modifications not checked) [… (MAGE-10: 254-262)] |  |  | Kd [5]: 48 µM
SLYNTVATLGSGNLLRLTGW (modifications not checked) |  | 1.8 | 
NLLRLTGW (modifications not checked) | 1.85 |  | 
HWDFAWPWGSGSIINFEKL (modifications not checked) [HWDFAWPWgsgSIINFEKL] | 4.3 |  | 
SIINFEKLGSGHWDFAWPW (modifications not checked) [SIINFEKLgsgHWDFAWPW] | 40 |  | 
ALKHRAYELGSGNLLRLTGW (modifications not checked) |  | 1.1 | 
ALFDIESKV (modifications not checked) [… (Prostate Specific Membrane Antigen 771-779)] | 145 |  | 
HWDFAWPW (modifications not checked) | 120 |  | 
SIINFEKLGSGNLLRLTGW (modifications not checked) [SIINFEKLgsgNLLRLTGW] | 1.2 |  | fold increase in affinity over … (SEQ ID NO:368) [6]: 15 fold
KASEKIFYV (modifications not checked) [… (SSX-2: 41-49)] |  |  | Kd [5]: 57 µM
ALKHRAYEL (modifications not checked) |  | 97 | 
TLGIVCPI (modifications not checked) [TLGIVCPI (HPV Strain 16 E7 86-93)] | 187 |  | 
AIIRILQQL (modifications not checked) [… (HIV Vpr: 59-67)] |  | 93 | 
IMDQVPFSV (modifications not checked) [… (Gp100 209-217, T210M)] | 2560 |  | Kd [5]: 2570 µM
SLFNTVATLGSGNLLRLTGW (modifications not checked) |  | 1.9 | 
VIYQYMDDL (modifications not checked) [… (HIV Pol: 334-342)] |  | 91 | 
FYQLALTW (modifications not checked) | 5.9 |  | 
AFHHVAREL (modifications not checked) |  | 84 | 
TLGIVCPIGSGHWDFAWPW (modifications not checked) [TLGIVCPIgsgHWDFAWPW] | 9.1 |  | 
IMDQVPFSVGSGNLLRLTGW (modifications not checked) | 3.1 |  | Kd [5]: 0.9 µM
KASEKIFYVGSGNLLRLTGW (modifications not checked) |  |  | Kd [5]: 1.4 µM
YLEPGPVTV (modifications not checked) [… (GP100: 280-288 (288V))] |  |  | Kd [5]: 71 µM

Molecule | Kd [3] [µM] | Kd [4] [µM] | further results
VLDVGDAYFSVGSGNLLRLTGW (modifications not checked) |  | 2 | 
YMDGTMSQV (modifications not checked) [… (Tyrosinase 368-376, 370D)] | 204 |  | Kd [5]: 209 µM
YMDGTMSQVGSGHWDFAWPW (modifications not checked) | 24 |  | 
IMDQVPFSVGSGHWDFAWPW (modifications not checked) | 155 |  | 
VLDVGDAYFSV (modifications not checked) [… (HIV Pol: 263-273)] |  | 110 | 
ALFDIESKVGSGNLLRLTGW (modifications not checked) [PSMA P2 hybrid antigen with NLLRLTGW] | 1.3 |  | 
YLEPGPVTVGSGNLLRLTGW (modifications not checked) |  |  | Kd [5]: 2 µM
RKLFFNLRW (modifications not checked) | 15 |  | 
SIINFEKLGSGFYQLALTW (modifications not checked) [SIINFEKLgsgFYQLALTW] | 1.43 |  | 
VIYQYMDDLGSGNLLRLTGW (modifications not checked) |  | 1.7 | 
YMDGTMSQVGSGNLLRLTGW (modifications not checked) | 2.65 |  | Kd [5]: 1.8 µM
NLLRLTGWGSGSIINFEKL (modifications not checked) |  | 1.6 | 
HWDFAWPWGSGYMDGTMSQV (modifications not checked) [HWDFAWPWgsg…] | 29 |  | 
RGYVYQGL (modifications not checked) [RGYVYQGL (VSV nucleoprotein amino acids 52-59)] |  | 82 | 
TLGIVCPIGSGNLLRLTGW (modifications not checked) [TLGIVCPIgsgNLLRLTGW] | 5.2 |  | 
SVYDFFVWL (modifications not checked) [… (Trp-2: 180-188)] |  |  | Kd [5]: 81 µM
ALFDIESKVGSGHWDFAWPW (modifications not checked) |  |  | Kd [7]: 22 µM
YMLDLQPETTGSGHWDFAWPW (modifications not checked) | 27 |  | 
SIINFEKL (modifications not checked) [SIINFEKL (ovalbumin amino acids 257-264)] | 279 | 235 | 
AIIRILQQLGSGNLLRLTGW (modifications not checked) [ALIRJ… (as printed; hybrid antigen of the Vpr: 59-67 epitope)] |  | 0.6 | 
SVYDFFVWLGSGNLLRLTGW (modifications not checked) |  |  | Kd [5]: 2.9 µM
ILKEPVHGVGSGNLLRLTGW (modifications not checked) |  | 1.2 | 
GLYDGMEHLGSGNLLRLTGW (modifications not checked) |  |  | Kd [5]: 1.1 µM
AFHHVARELGSGNLLRLTGW (modifications not checked) |  | 2.1 | 
SLLMWITQVGSGNLLRLTGW (modifications not checked) |  |  | Kd [5]: 2.2 µM
